{"source": "the DeepSol protein solubility set", "data": [{"experiment": "soluble on expression in E. coli; label from the status in PepcDB or PDB records", "values": [{"sequence": "MSLSLLLQQHLSQPWRFLDHTSFGPTFQALQSFAYDDTLCTSIGKSQSPPTLRAWVHHNTVVLGIQDSRLPQIKAGIEALKGFQHDVIVRNSGGLAVVLDSGILNLSLVLKEEKGFSIDDGYELMYELICSMFQDHREQIEAREIVGSYCPGSYDLSIDGKKFAGISQRRIRGGVAVQIYLCVSGSGAERAKMIRTFYDKAVAGQPTKFVYPRIKPETMASLSELLGQPHNVSDVLLKALMTLQQHGASLLTESLSADEWLLYEQHFARISERNEKLLAEEGHHHHHH", "soluble on expression in E. coli": "soluble"}, {"sequence": "MVAYPGPMPRSPSPGQTPDAPTSGGGSTDSTRQRIVAAAKEEFARHGIAGARVDRIAKQARTSKERVYAYFRSKEALYAHVAERETTALIEATQLDPADLPGYAGILFDHFAARPDHYRLITWGRLELAESADNTSGPLQATIAGKLDKLRDAQRIGLLDPAWDPVDVLALINQIAMTWAGQPEIAAAAADQAVDPSVTARRAALVTAVEHMFPRPDRDQRPNRLT", "soluble on expression in E. coli": "soluble"}, {"sequence": "MNPIVKAPTLNDLPAPPPGKTGWPWTEQNEALPEKMPDGSDWPKISIVTPSYNYGQFIEETIRSVLLQGYPNLEYIVVDGGSTDNTVTIIRKYEKYLKYWASEPDHGQTDAINKGYRYCSGDVFAWLNADDLYYDQSTLLKVINFYQKGYDLIVGECLNINADGTHFNQAITSTEKSDPTYFKKYLRYWSSGFLPQPAIFVKKEMADQCFPLSIELYYAMDFQFFLRVLNQEPKSVWIQEKLTRLRWHEDSKTMGTISRIDFHAIVPEPEVHKVALAEAENLPTWLEKIFFRIQAFDYLSLQPYINSLDNFHWLQITKTIVKRPTLAVWPLFWKIFFRSLLGEQIYKLLKRTIRTNLEHHHHHH", "soluble on expression in E. coli": "not soluble"}, {"sequence": "MIMKANIFNIQRFSIHDGPGIRTVVFFKGCPLRCPWCSNPESQHRPPQILWDKKKCFYGHLCEVKCPAGCLNFENNNLVFSADNCTGCKSCITQCPGKALTFVGNMMELDEVMEEVLKDMDFYQESKGGVTLSGGEVLVQPDFAAALLKKCKENGIHTALETTAFSTPLVFSKVLANTDLLLLDIKHYNDREHIKYTGVSNQSILENLDFAVTMKVPVVARIPVIPSVNNTIQDAKEFVKLLKEHRVDTVNLLPFHQFGEKKYEELQVPYQLKDVKALRPEDMTEYYNVFKNAGLNVSM", "soluble on expression in E. coli": "not soluble"}, {"sequence": "MGSDKIHHHHHHMKRISQQELESYLWGAAVLLRGLIDAGDYKQFIFPLLFYKRVSDVWDEEYQAALANSGGDLSYAQFAENHRFQIPAGAHWNDVRQTPKNVGAAIQKAMRAIESANPDLLDGIFGDAPWTNRERLPDETLKNLIEHFSTQTLSVANVPEDELGNAYEYLIKKFADDSGHTAAEFYTNRTVVHLMTQLLAPQAGESIYDPTCGTGGMLISALDEVKRAGGEYRTLKLYGQERNLITSSIARMNLFLHGVEDFEIIRGDTLAEPKHIEGDRLRQFDVILANPPYSIKQWNREAWSSDKWGRNSLGTPPQGRADYAFQQHILTSLTAKGRCAVLWPHGVLFRNEEQSMRAKMVEQDWVEAVIGLGPNLFYNSPMESCIVICNRKKAAARKGKVIFIDAVNEVARERAQSFLKPEHQQRILTAYKTFADVPGFAKVATLAEIGANAGNLSIPLYVKRIAAAIATDSNDDAVSLRSAWDQWQADGRAFWQQMDALVETLDGLVAQEAADA", "soluble on expression in E. coli": "not soluble"}, {"sequence": "MTVIQNIPNSLCKGLNTFSKNYLQNCKRCLTFFYELCGIICKKIEIMKGYERATKEEINDRLRIEENCHAQVERIIYIRHLCNLNLEEAADVTNLSISTLSRYENEVTKCSVQSLITIYYHYQKYLYEQHIPFDKNLFLIDMNSFHN", "soluble on expression in E. coli": "not soluble"}, {"sequence": "GPGSMPSITQETLRRRAEFVRTGGRGSVRRTVKVAHRNTGDDKKVQQVLKRLNVSPFNDVDDAVLYRHDGTAYYFEKPKVQASMQSQCFVVSGAYDVKEASEVPS", "soluble on expression in E. coli": "not soluble"}, {"sequence": "MNGHISNHPSSFGMYPSQMNGYGSSPTFSQTDREHGSKTSAKALYEQRKNYARDSVSSVSDISQYRVEHLTTFVLDRKDAMITVDDGIRKLKLLDAKGKVWTQDMILQVDDRAVSLIDLESKNELENFPLNTIQHCQAVMHSCSYDSVLALVCKEPTQNKPDLHLFQCDEVKANLISEDIESAISDSKGGKQKRRPDALRMISNADPSIPPPPRAPAPAPPGTVTQVDVRSRVAAWSAWAADQGDFEKPRQYHEQEETPEMMAARIDRDVQILNHILDDIEFFITKLQKAAEAFSELSKRKKNKKGKRKGPGEGVLTLRAKPPPPDEFLDCFQKFKHGFNLLAKLKSHIQNPSAADLVHFLFTPLNMVVQATGGPELASSVLSPLLNKDTIDFLNYTVNGDERQLWMSLGGTWMKARAEWPKEQFIPPYVPRFRNGWEPPMLNFMGATMEQDLYQLAESVANVAEHQRKQEIKRLSTEHSSVSEYHPADGYAFSSNIYTRGSHLDQGEAAVAFKPTSNRHIDRNYEPLKTQPKKYAKSKYDFVARNNSELSVLKDDILEILDDRKQWWKVRNASGDSGFVPNNILDIVRPPESGLGRADPPYTHTIQKQRMEYGPRPADTPPAPSPPPTPAPVPVPLPPSTPAPVPVSKVPANITRQNSSSSDSGGSIVRDSQRHKQLPVDRRKSQMEEVQDELIHRLTIGRSAAQKKFHVPRQNVPVINITYDSTPEDVKTWLQSKGFNPVTVNSLGVLNGAQLFSLNKDELRTVCPEGARVYSQITVQKAALEDSSGSSELQEIMRRRQEKISAAASDSGVESFDEGSSH", "soluble on expression in E. coli": "soluble"}, {"sequence": "MGHHHHHHSHMKNLVLKIISGSFPPVSLHYSYDLRSLVSQLFKRNPRDRPSVNSILEKGFIAKRIEKFLSPQLIAEEFCLKTFSKFGSQPIPAKRPASGQNSISVMPAQKITKPAAKYGIPLAYKKYGDKKLHEKKPLQKHKQAHQTPEKRVNTGEERRKISEEAARKRRLEFIEKEKKQKDQIISLMKAEQMKRQEKERLERINRAREQGWRNVLSAGGSGEVKAPFLGSGGTIAPSSFSSRGQYEHYHAIFDQMQQQRAEDNEAKWKREIYGRGLPERGILPGVRPGFPYGAAGHHHFPDADDIRKTLKRLKAVSKQANANRLDCDDP", "soluble on expression in E. coli": "not soluble"}, {"sequence": "MGGSHHHHHHGMASALYAKGGKGSAVPSDSQAREKLALYVYEYLLHIGAQKSAQTFLSEIRWEKNITLGEPPGFLHSWWCVFWDLYCAAPDRREACEHSGEAKAFQDYSAAAAPSPVMGSMAPGDTMAAGSMAAGFFQGPPGSQPSPHNPNAPMMGPHGQPFMSPRFPGGPRPTLRMPSQPPAGLPGSQPLLPGAMEPSPRAQGHPSMGGPMQRVTPPRGMASVGPQSYGGGMRPPPNSLAGPGLPAMNMGPGVRGPWASPSGNSIPYSSSSPGSYTGPPGGGGPPGTPIMPSPGDSTNSSENMYTIMNPIGQGAGRANFPLGPGPEGPMAAMSAMEPHHVNGSLGSGDMDGLPKSSPGAVAGLSNAPGTPRDDGEMAAAGTFLHPFPSESYSPGMTMSV", "soluble on expression in E. coli": "not soluble"}, {"sequence": "MKCIETPKSAEEWRKVERTFAKKHILRCLGSLDGKHIRIKAPPHSGSLFFNYKHFFSFVLLVVVDADGRVIWVDVGSPGSNNDASIFSDSKLKTILDEEANLPPPTFWSRDFVVKPFVIADGIFKITPRMMTLYGGNGLNISQKVLNKKLSRARVKAEHAFGRLSAKFRILRREMECPYEKSVDIILALCHLHNYLIGKAEDVVNVPIETNMIPYKDGKEQRDYLCRYLNN", "soluble on expression in E. coli": "not soluble"}, {"sequence": "MTYRIVLKSDPEKRFKNIRACKDEPMQMVVRNINNGADYVHPEQDVEVFSVKTANNNDLVCVKCTPDSYSSNPAVAEQVVLFCQPNSSDLGGFLQPNSMNFVTYANVFETDLYAFDYSGYGFSSGTQGEKNVYADVRAVYEKILEMRPDKKIVVMGYSIGTTAAVDLAATNPDRLAGVVLIAPFTSGLRLFSSKPDKPDTCWADSFKSFDKINNIDTRVLICHGDVDEVIPLSHGLALYEKLKNPVPPLIVHGANHHTILSGKYIHVFTRIANFLRNETLVSCRSAEVDSSQQQQQLSSKRTENE", "soluble on expression in E. coli": "not soluble"}, {"sequence": "DKVTQSSPDQTVASGSEVVLLCTYDTVYSNPDLFWYRIRPDYSFQFVFYGDDSRSEGADFTQGRFSVKHILTQKAFHLVISPVRTEDSATYYCAFTLPPPTDKLIFGKGTRVTVEP", "soluble on expression in E. coli": "soluble"}, {"sequence": "MAHHHHHHMKSMRAVTMRAFGDVDVMHISEVTGVSLSRPSDVIIRVMAAGVNRADVSQRQGHYPPPKGSSEILGMEVSGVVEKVGENVKRFKEGDRVMALLTGGGYAEMAVAHEGSVMKIPEGYSFVEAAAIPEAFLTAWQALKLHGNLQKGQHMLFHAGASGVGTAALQLAEKYFRATAIATCSSGKVEFCKRFAKFVVDRSPDASGKCFSSKVRDAVKGETVNLIVDPVVGGTYLQEDGEVLAQDGKVVLLAFMGGAKVSLDVMPFFRKRASVIFSKLRDQTDEYKEALVRSFEEEVIPYMTRREIVPVVQCTYALEEVAAAHKLMENNKSNGKVILTVGKAE", "soluble on expression in E. coli": "soluble"}, {"sequence": "MAAPPSPGRTADQADQVCTFLFKKPGRKGAAGLRKRPACDPEHGESSSSGDEGDTVAQPPRVAPRPRGLHSWQKAAHGDRRGEEAAPESLDVVYRSTRSAKPVGPEDMGATADFEQDTEKEHHTPTILKCSQRVQEALRGREHDHIYRGIHSYLRYLKPKDTSMGNSSSGMARKGPIRAPGHLRATVRWDYQPDICKDYKETGFCGFGDSCKFLHDRSDYKLGWEIERELEEGRYCICEDENHEVGSEEEEIPFRCFICRQAFQNPVVTKCRHYFCESCALEHFRATPRCYICDQPTGGIFNPAKELMAKLQKLQAAEGKKR", "soluble on expression in E. coli": "soluble"}, {"sequence": "MTRTVSMSTAINEAMKISMRRDENVILIGEDVAGGAQVDHLQDDEAWGGVLGVTKGLVQEFGRNRILDTPISEAGYMGAAMAAAATGLRPIAELMFNDFIGSCLDQVLNQGAKFRYMFGGKAKVPVTVRTMHGAGFSAAAQHSQSLYALFTSIPGIKVVVPSTPYDAKGLLLAAIEDDDPVIFFEDKTLYNMKGEVPEGYYTIPLGKADIKREGSDVTIVAIGKQVHTALAAAEQLAKKGLEVEVIDPRSLSPLDEDTILSSVEKTNRLIVIDEANPRCSIATDIAAIVADRGFDLLDAPIKRITAPHTPVPFSPPLEKLYLPTPEKVIETVSEMIGDQSLLHV", "soluble on expression in E. coli": "not soluble"}, {"sequence": "MGSDKIHHHHHHMNALRLEDLISVEMLQKVQDNFSAAVGIAMIIVDERGTPVTRPSNFSAFCQTIRTSAARRDQCFQCDDDGGRRAMAMGEPSIYQCHCGLVDFAAPIIVRDQYLGAVISGQVRLRQGHEVTLEYIAPPDESWRQDAHLIALREKITEIPYVKLRSAAYTLYHLAAYLVEESYSNAVSQELSAKNLKLMEESKRRVELEKSLREAELQALSYQVNPHFLFNVLNTIGRLALKEHAPKTEDMLYAFADMMRYVLKKSRSQIVSLQTEVGHVRNYLHIQKVRMGDRFTFTMDVPAKYDGILCPFMVLHPIVENSINYAIEPHEADGRIEITARDDGLNMILRVVDNGDGVSPELVRAALDGVAEPHGRTSIGLHNVDSRLRHFFGPDYGLTVESPATPGGRHGRRDALSPGLRSLRHLNACAEERRLCTALSLLKTRNSSARRCAPF", "soluble on expression in E. coli": "not soluble"}, {"sequence": "MEEWIQYARDMAKAEKELEIELWVIISFYRTTEQGGKVLLFRYDLPRKVADKYDWVVRWRRARLTCQYPKGNVTHTYCLYDRHSGEDYSFGSCLSSLAAAKAQVTRMERRIREYTTWQKQNNLFFDEQTDEMLQKAVTKLKIKKENVQEAERRLQRKAEKHQREMRK", "soluble on expression in E. coli": "not soluble"}, {"sequence": "MIPTERRQIILDMVAEKGIVSIAELTERMHVSHMTIRRDLQKLEQQGAVIQVSGGVQSSTRVAHEPSHQIKTELATPQKAAIGKLAASLVQPESCIYLDAGTTTLAIARQLVTMNKLTVVTNDFVIADYLMDNSNCTIIHTGGAVCRENRSCVGEAAATLLRGLMIDQAFISASSWSVRGISTPAEDKVTVKRAVASASRQKILVCDATKYGQVATWLALPLAEFNQIVTDDGLPESAIRALAKVDISLLMAKQLEHHHHHH", "soluble on expression in E. coli": "soluble"}]}]}
